Test results taken from US7460961B2, “N-TRADD active site and uses thereof” (Genetics Institute, LLC, priority 2000, dated 2008).
Ends that are not written are not given here.

B2: N-terminal domain of human TNFR-1 associated death domain protein (N-TRADD), residues 1-169, wild type (other)
chain: MAAGQNGHEEWVGSAYLFVESSLDKVVLSDAYAHPQQKVAVYRALQAALAESGGSPDVLQMLKIHRSDPQLIVQLRFCGRQPCGRFLRAYREGALRAALQRSLAAALAQHSVPLQLELRAGAERLDALLADEERCLSCILAQQPDRLRDEELAELEDALRNLKCGSGAR
notes: Expressed in E. coli BL-21; monomeric (>95%) by SEC-HPLC; 15N or 15N/13C labelled for NMR; also called N-TRADD (1-169); wild-type N-TRADD; not shown: His tag introduced after aa169

Assays:
[1] = target: T1, N-TRADD/C-TRAF2 interaction (Homo sapiens, UniProt Q12933); assay: BIAcore competition for binding of N-TRADD to C-TRAF2
T1 construct: The C-TRAF2 (residues 262-501) used in the instant HSQC titration experiment; initiator Met added before residue 262 (N); 6xHis (C); made in house; host or cells: C-TRAF2: baculovirus in 'Tini' cells; N-TRADD: E. coli BL-21
T1 sequence (Q12933 262-501): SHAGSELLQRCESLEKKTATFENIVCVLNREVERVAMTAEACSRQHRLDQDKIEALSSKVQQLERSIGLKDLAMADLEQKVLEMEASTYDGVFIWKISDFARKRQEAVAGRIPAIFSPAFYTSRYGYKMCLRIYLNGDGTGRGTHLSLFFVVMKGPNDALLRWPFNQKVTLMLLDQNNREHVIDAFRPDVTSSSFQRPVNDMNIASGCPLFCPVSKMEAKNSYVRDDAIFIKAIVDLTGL
Experimental: (§1) C-TRAF2 and N-TRADD binding studies: The affinity of wild-type N-TRADD and C-TRAF2 was measured by surface plasma resonance using a BIAcore 2000 system (Pharmacia Biosensor AB). C-TRAF2 (residues 262-501) was purified and coupled to a sensor chip CM5 by amine coupling at pH=5.0 to get about 800, 1500 and 5500 response units on three different flow cells. A constant flow (20 μL/min) of purified N-TRADD protein in 10 mM Hepes, pH=7.4, 150 mM NaCl, 3.4 mM EDTA and 0.05% P20 surfactant at 8 different concentrations from 650 μM to 84 μM was applied over the protein coupled chip for 2 min to analyze the association. Binding constants were obtained from the BIAevaluation software.
In the instant studies, the interaction between a 13-mer peptide derived from CD40 (a longer version of CD40 -pl, with sequences SNTAAPVQETLHG (SEQ ID NO:2)) with C-TRAF2 was characterized, as well as its effect on the N-TRADD/C-TRAF2 interaction. […] In addition the peptide was also able to compete for the binding of N-TRADD to C-TRAF2, with an IC50 of ˜1 mM.
In addition to this 13-mer peptide, the effect of the CD40-p1 peptide (McWhirter et al, Proc. Natl. Acad. Sci. USA 96: 8408-8413, 1999) on the interaction between N-TRADD and C-TRAF2 was also evaluated. […]

N-TRADD/C-TRAF2 binding = target: T2, N-TRADD/C-TRAF2 binding (Homo sapiens, UniProt Q12933); assay: 1H-15N HSQC NMR study of N-TRADD/C-TRAF2 binding, inhibition by peptide; settings: peptide 3 mM; N-TRADD and C-TRAF2 110 μM each; data not shown
T2 construct: The C-TRAF2 (residues 262-501) used in the instant HSQC titration experiment; initiator Met added before residue 262 (N); 6xHis (C); made in house; host or cells: C-TRAF2: baculovirus in 'Tini' cells; N-TRADD: E. coli BL-21
T2 sequence (Q12933 262-501): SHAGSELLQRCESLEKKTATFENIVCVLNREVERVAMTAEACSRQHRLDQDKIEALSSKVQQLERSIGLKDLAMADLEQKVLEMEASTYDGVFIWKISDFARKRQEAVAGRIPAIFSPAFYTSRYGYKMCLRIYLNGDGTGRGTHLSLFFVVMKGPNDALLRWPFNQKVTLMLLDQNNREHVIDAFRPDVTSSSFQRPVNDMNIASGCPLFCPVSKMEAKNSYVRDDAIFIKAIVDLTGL
Experimental: (§2) NMR Spectroscopy: All NMR spectra were collected on a 600 MHZ Varian Unity Plus spectrometer. For the backbone assignments, HNCACB and HN(CO)CACB experiments (Clore and Gronenborn, Methods Enzymol. 239: 349-363, 1994; Muhandiram, et al., J. Magn. Reson. B103: 208-216, 1994) were performed. To confirm the type of amino acid assignment, C(CO)NH-TOCSY (Grzesiek, et al., J. Magnetic Resonance, B101: 114-119, 1993) was used. Side chain resonances were assigned from the following experiments: HBHA(CO)NH (Clore and Gronenborn, Methods Enzymol. 239: 349-363, 1994), HC(CO)NH-TOCSY (Grzesiek, et al., J. Magnetic Resonance. B101: 114-119, 1993) for the ^15N/^13C sample in 90% H2O, 10% D2O, HCCH-TOCSY for the ^15N/^13C-labeled sample in D2O, and ^15N-TOCSY-HSQC with the uniformly labeled ^15N protein.
The ^1H-^15N HSQC of N-TRADD was used as a tool to map the binding interface with C-TRAF2, since the chemical shifts of contact residues will be perturbed upon complex formation. […] The C-TRAF2 (residues 262-501) used in the instant HSQC titration experiment (at 120 μM) is also a trimer, as determined by size exclusion chromatography. […] N-TRADD Mutagenesis and interactions between C-TRAF2 and N-TRADD: In order to further characterize the amino acids in N-TRADD that are involved in C-TRAF2 recognition, site directed mutants of N-TRADD were prepared and evaluated for their ability to bind C-TRAF2. […]

N-TRADD [2] = target: T3, N-TRADD (Homo sapiens, UniProt Q15628); assay: 1H-15N HSQC of N-TRADD with addition of peptide; assay type: binding
T3 construct: The polypeptide for N-TRADD (1-169) was overexpressed in BL-21 E. coli; His tag (C); made in house; host or cells: E. coli BL-21, vector pRSETB
T3 sequence (Q15628 1-169): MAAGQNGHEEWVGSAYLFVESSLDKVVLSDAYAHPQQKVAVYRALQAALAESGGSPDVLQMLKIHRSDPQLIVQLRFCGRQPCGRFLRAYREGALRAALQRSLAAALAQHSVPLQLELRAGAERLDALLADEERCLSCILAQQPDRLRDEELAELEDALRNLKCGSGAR
Experimental: as §2
Inhibition by the CD40-derived peptide was also observed in the ^1H-^15N HSQC studies of N-TRADD/C-TRAF2 binding. At stoichiometric concentrations of N-TRADD and C-TRAF2 (110 μM each), HSQC peaks for N-TRADD have broadened out due to binding to C-TRAF2 as described above.

N-TRADD [3] = target: T3, N-TRADD; assay: BIAcore experiment, CD40 peptide with N-TRADD; assay type: binding; settings: final peptide concentration approximately 15 mM; data not shown
[4] = target: B2; assay: 1H-15N HSQC NMR
[5] = target: T4, C-TRAF2 (residues 262 to 501 of human TRAF2) (human, UniProt Q12933 262-501); assay: BIAcore competition; competitor N-TRADD
T4 construct: range 262-501; Expressed by baculovirus; Amine-coupled to a CM5 chip in the BIAcore experiments; also called C-terminal domain of TRAF2; C-TRAF2 (residues 262-501)
T4 sequence: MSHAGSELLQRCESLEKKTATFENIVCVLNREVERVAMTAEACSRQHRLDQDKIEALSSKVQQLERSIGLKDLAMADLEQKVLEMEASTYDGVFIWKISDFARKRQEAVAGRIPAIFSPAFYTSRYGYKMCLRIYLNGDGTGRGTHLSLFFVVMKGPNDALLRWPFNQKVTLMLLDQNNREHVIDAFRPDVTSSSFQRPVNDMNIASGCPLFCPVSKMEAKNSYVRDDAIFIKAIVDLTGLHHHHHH

[6] = target: T4, C-TRAF2 (residues 262 to 501 of human …); assay: BIAcore (SPR)
[7] = target: T4, C-TRAF2 (residues 262 to 501 of human …); assay: BIAcore (SPR), C-TRAF2 amine-coupled to CM5 chip, N-TRADD in flow
Experimental: as §1, with “µL/min)” for “μL/min)”, “µM” for “μM”

[8] = target: T4, C-TRAF2 (residues 262 to 501 of human …); assay: BIAcore (SPR), C-TRAF2 on chip
Experimental: as §1, with “µL/min)” for “μL/min)”, “µM” for “μM”

[9] = target: T4, C-TRAF2 (residues 262 to 501 of human …); assay: BIAcore surface plasmon resonance, C-TRAF2 (printed TF2-C) coupled to the CM5 chip, N-TRADD mutant in the flow
[10] = target: T4, C-TRAF2 (residues 262 to 501 of human …); assay: inhibition of the N-TRADD/C-TRAF2 interaction; competitor N-TRADD

SNTAAPVQETLHG-OH [13-mer peptide derived from CD40, SNTAAPVQETLHG-OH]
inhibition of the interaction between N-TRADD and C-TRAF2 (in words) [1]: inhibited
effect on 1H-15N HSQC spectrum of N-TRADD broadened by C-TRAF2 (N-TRADD/C-TRAF2 binding): restored the ^1H-^15N HSQC spectrum of N-TRADD alone
interaction between N-TRADD and peptide (changes in 1H-15N HSQC of N-TRADD) (N-TRADD [2]): No interaction
interaction between peptide and N-TRADD by BIAcore (N-TRADD [3]): lack of interaction

B1: 13-mer peptide derived from CD40 (SNTAAPVQETLHG-OH) (peptide)
peptide: SNTAAPVQETLHG-OH
notes: Synthesised by Fmoc solid-phase methods; printed with a free C-terminus (-OH); also called CD40 peptide; CD40-derived peptide
binding result [4]: no binding
IC50 [5]: ~1000 µM
Kd [6]: ~1000 µM

B2
Kd [7]: 6 µM

B3: N-TRADD Y16A mutant protein (other)
chain: MAAGQNGHEEWVGSAALFVESSLDKVVLSDAYAHPQQKVAVYRALQAALAESGGSPDVLQMLKIHRSDPQLIVQLRFCGRQPCGRFLRAYREGALRAALQRSLAAALAQHSVPLQLELRAGAERLDALLADEERCLSCILAQQPDRLRDEELAELEDALRNLKCGSGAR
notes: Single point mutant of the N-TRADD (1-169) construct; not shown: His tag after aa169 of the N-TRADD construct
fold reduction in C-TRAF2 affinity against wild-type N-TRADD [8]: ~16 fold

B4: N-TRADD D149A mutant protein (other)
chain: MAAGQNGHEEWVGSAYLFVESSLDKVVLSDAYAHPQQKVAVYRALQAALAESGGSPDVLQMLKIHRSDPQLIVQLRFCGRQPCGRFLRAYREGALRAALQRSLAAALAQHSVPLQLELRAGAERLDALLADEERCLSCILAQQPDRLRAEELAELEDALRNLKCGSGAR
notes: as for B3
binding result [9]: binds

B5: N-TRADD H65A mutant protein (other)
chain: MAAGQNGHEEWVGSAYLFVESSLDKVVLSDAYAHPQQKVAVYRALQAALAESGGSPDVLQMLKIARSDPQLIVQLRFCGRQPCGRFLRAYREGALRAALQRSLAAALAQHSVPLQLELRAGAERLDALLADEERCLSCILAQQPDRLRDEELAELEDALRNLKCGSGAR
notes: as for B3
binding result [9]: binds

B6: N-TRADD I72A mutant protein (other)
chain: MAAGQNGHEEWVGSAYLFVESSLDKVVLSDAYAHPQQKVAVYRALQAALAESGGSPDVLQMLKIHRSDPQLAVQLRFCGRQPCGRFLRAYREGALRAALQRSLAAALAQHSVPLQLELRAGAERLDALLADEERCLSCILAQQPDRLRDEELAELEDALRNLKCGSGAR
notes: also called 172A (so in the source); not shown: His tag after aa169 of the N-TRADD construct
binding result [9]: binds

B7: CD40-p1 peptide (YPIQET) (peptide)
peptide: YPIQET
notes: Peptide of McWhirter et al; also called CD40-pl; 6-mer peptide
IC50 [10]: ~200 µM
